Results published in paper PMC2641028.

Columns and labels:
[1] = molecular target: CP-MVP-Z recombinant vaults; assay: ELISA
[2] = molecular target: CP-MVP-Z recombinant vaults

EC50 [1]	other [2]	Substance
0.25 nM	92%	rabbit IgG (Sigma) (antibody)
	52%	mouse IgG (Sigma) (antibody)
